# Experimental data: the supplement of paper PMC9112550, “Optimization of the antimicrobial peptide Bac7 by deep mutational scanning” (BMC Biology, 2022)
# Test system: Escherichia coli TOP10
# Experiment: shrunken log2 fold change of peptide-encoding DNA abundance (4.5 h post-induction vs induction); higher = less antimicrobial activity (less host growth inhibition)
# Conditions: time post-induction: 4.5 h; library: site-saturation at positions 5, 18, 19, 20
# 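Also: peptides expressed intracellularly from a pBAD plasmid library in pooled LB shake-flask culture, induced with 0.3% L-arabinose, DNA abundance read by NGS, three biological replicates, DESeq2 with apeglm shrinkage.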
row,Sequence,shrunken log2 fold change
1,RRIRERPPRLPRPRPRPQCRPRP,-0.401
2,RRIRCRPPRLPRPRPRPHVTPRP,-0.64
3,RRIRFRPPRLPRPRPRPNTYPRP,-0.499
4,RRIRGRPPRLPRPRPRPRFSPRP,0.0932
5,RRIRRRPPRLPRPRPRPTSAPRP,0.274
6,RRIRRRPPRLPRPRPRPRLGPRP,0.76
7,RRIRPRPPRLPRPRPRPGICPRP,-0.0417
8,RRIRMRPPRLPRPRPRPLNMPRP,-0.0641
9,RRIRARPPRLPRPRPRPYGMPRP,-0.684
10,RRIRFRPPRLPRPRPRPHHYPRP,-0.681
11,RRIRLRPPRLPRPRPRPDKLPRP,-0.266
12,RRIRRRPPRLPRPRPRPEGYPRP,0.202
13,RRIRARPPRLPRPRPRPAIEPRP,0.396
14,RRIRRRPPRLPRPRPRPWCEPRP,-0.0981
15,RRIRERPPRLPRPRPRPWSQPRP,-0.0521
16,RRIRSRPPRLPRPRPRPTTQPRP,0.22
17,RRIRRRPPRLPRPRPRPLKGPRP,-0.0966
18,RRIRVRPPRLPRPRPRPCNFPRP,-0.0271
19,RRIRARPPRLPRPRPRPGVSPRP,0.559
20,RRIRLRPPRLPRPRPRPIDHPRP,-0.154
21,RRIRERPPRLPRPRPRPLPSPRP,-0.0852
22,RRIRGRPPRLPRPRPRPGCIPRP,0.445
23,RRIRKRPPRLPRPRPRPSSVPRP,-0.378
24,RRIRNRPPRLPRPRPRPPQWPRP,0.315
25,RRIRNRPPRLPRPRPRPQLEPRP,0.307

row,Sequence,shrunken log2 fold change
1,RRIRIRPPRLPRPRPRPKSNPRP,-0.673
2,RRIRTRPPRLPRPRPRPVCWPRP,0.304
3,RRIRMRPPRLPRPRPRPKYGPRP,0.0382
4,RRIRNRPPRLPRPRPRPFRPPRP,-0.215
5,RRIRLRPPRLPRPRPRPMMWPRP,0.148
6,RRIRFRPPRLPRPRPRPIAHPRP,-0.109
7,RRIRQRPPRLPRPRPRPSIQPRP,-0.13
8,RRIRKRPPRLPRPRPRPCQNPRP,0.412
9,RRIRMRPPRLPRPRPRPGILPRP,0.0644
10,RRIRQRPPRLPRPRPRPTHMPRP,0.0516
11,RRIRHRPPRLPRPRPRPNVEPRP,-0.063
12,RRIRERPPRLPRPRPRPDCHPRP,-0.011
13,RRIRWRPPRLPRPRPRPGFHPRP,-0.0866
14,RRIRMRPPRLPRPRPRPHFTPRP,-0.173
15,RRIRARPPRLPRPRPRPRHPPRP,0.383
16,RRIRWRPPRLPRPRPRPTRSPRP,0.723
17,RRIRCRPPRLPRPRPRPIVQPRP,0.0655
18,RRIRHRPPRLPRPRPRPPDNPRP,-0.0231
19,RRIRHRPPRLPRPRPRPTAMPRP,0.148
20,RRIRFRPPRLPRPRPRPTEPPRP,0.00236
21,RRIRTRPPRLPRPRPRPSENPRP,-0.0993
22,RRIRKRPPRLPRPRPRPGEVPRP,0.268
23,RRIRFRPPRLPRPRPRPGTPPRP,0.292
24,RRIRMRPPRLPRPRPRPFKLPRP,0.102
25,RRIRDRPPRLPRPRPRPAGKPRP,0.0578

row,Sequence,shrunken log2 fold change
1,RRIRYRPPRLPRPRPRPAIKPRP,-0.411
2,RRIRWRPPRLPRPRPRPLFLPRP,-0.318
3,RRIRVRPPRLPRPRPRPQKPPRP,0.116
4,RRIRYRPPRLPRPRPRPPTTPRP,-0.165
5,RRIRPRPPRLPRPRPRPLEIPRP,-0.199
6,RRIRGRPPRLPRPRPRPKRGPRP,0.919
7,RRIRTRPPRLPRPRPRPYQAPRP,-0.206
8,RRIRERPPRLPRPRPRPNHFPRP,-0.799
9,RRIRFRPPRLPRPRPRPECPPRP,0.0177
10,RRIRIRPPRLPRPRPRPYPIPRP,-0.139
11,RRIRGRPPRLPRPRPRPRTTPRP,1.06
12,RRIRSRPPRLPRPRPRPLCQPRP,-0.135
13,RRIRDRPPRLPRPRPRPTRHPRP,0.42
14,RRIRCRPPRLPRPRPRPYMFPRP,-1.01
15,RRIRCRPPRLPRPRPRPLQHPRP,-0.0615
16,RRIRARPPRLPRPRPRPHNHPRP,-0.436
17,RRIRKRPPRLPRPRPRPFVVPRP,-0.00719
18,RRIRNRPPRLPRPRPRPRPDPRP,0.0914
19,RRIRLRPPRLPRPRPRPFLKPRP,-0.0488
20,RRIRVRPPRLPRPRPRPLTQPRP,0.149
21,RRIRDRPPRLPRPRPRPHQEPRP,-0.281
22,RRIRIRPPRLPRPRPRPSIHPRP,-1.28
23,RRIRMRPPRLPRPRPRPTAMPRP,1.14
24,RRIRARPPRLPRPRPRPFYNPRP,-0.44
25,RRIRRRPPRLPRPRPRPYASPRP,-0.0782

row,Sequence,shrunken log2 fold change
1,RRIRTRPPRLPRPRPRPWRTPRP,0.112
2,RRIRGRPPRLPRPRPRPSVYPRP,0.286
3,RRIRSRPPRLPRPRPRPTIYPRP,-0.405
4,RRIRVRPPRLPRPRPRPLPQPRP,0.216
5,RRIRGRPPRLPRPRPRPVNEPRP,0.517
6,RRIRQRPPRLPRPRPRPEQEPRP,-0.0311
7,RRIRMRPPRLPRPRPRPANMPRP,-0.203
8,RRIRLRPPRLPRPRPRPIFDPRP,-0.0489
9,RRIRSRPPRLPRPRPRPNDRPRP,0.0698
10,RRIRPRPPRLPRPRPRPRKTPRP,0.0393
11,RRIRNRPPRLPRPRPRPLVPPRP,-0.213
12,RRIRSRPPRLPRPRPRPTWIPRP,-0.38
13,RRIRARPPRLPRPRPRPWHLPRP,-0.0312
14,RRIRCRPPRLPRPRPRPKSCPRP,0.0733
15,RRIRDRPPRLPRPRPRPSHGPRP,-0.0107
16,RRIRIRPPRLPRPRPRPWNPPRP,-0.106
17,RRIRARPPRLPRPRPRPPTEPRP,1.2
18,RRIRRRPPRLPRPRPRPVHCPRP,0.345
19,RRIRARPPRLPRPRPRPALRPRP,0.363
20,RRIRQRPPRLPRPRPRPGSIPRP,-0.218
21,RRIRVRPPRLPRPRPRPPPLPRP,0.669
22,RRIRLRPPRLPRPRPRPPGIPRP,-0.383
23,RRIRLRPPRLPRPRPRPCAIPRP,-0.218
24,RRIRKRPPRLPRPRPRPFDNPRP,0.057
25,RRIRTRPPRLPRPRPRPAIAPRP,0.101

row,Sequence,shrunken log2 fold change
1,RRIRPRPPRLPRPRPRPYTDPRP,-0.562
2,RRIRMRPPRLPRPRPRPFSTPRP,-0.0159
3,RRIRKRPPRLPRPRPRPYWAPRP,-0.448
4,RRIRRRPPRLPRPRPRPNHTPRP,-0.306
5,RRIRPRPPRLPRPRPRPRYWPRP,0.0515
6,RRIRVRPPRLPRPRPRPWYKPRP,-0.252
7,RRIRARPPRLPRPRPRPAQNPRP,0.333
8,RRIRHRPPRLPRPRPRPKDNPRP,-0.201
9,RRIRMRPPRLPRPRPRPHCDPRP,-0.0833
10,RRIRDRPPRLPRPRPRPAVIPRP,-0.0132
11,RRIRMRPPRLPRPRPRPTPDPRP,1.39
12,RRIRQRPPRLPRPRPRPIALPRP,-0.213
13,RRIRYRPPRLPRPRPRPVWTPRP,0.0188
14,RRIRSRPPRLPRPRPRPRNSPRP,-0.264
15,RRIRFRPPRLPRPRPRPAHPPRP,0.267
16,RRIRMRPPRLPRPRPRPVWEPRP,0.4
17,RRIRMRPPRLPRPRPRPPAMPRP,1.02
18,RRIRDRPPRLPRPRPRPHADPRP,-0.0841
19,RRIRCRPPRLPRPRPRPRFDPRP,0.136
20,RRIRGRPPRLPRPRPRPGWGPRP,0.73
21,RRIRMRPPRLPRPRPRPNPAPRP,0.201
22,RRIRERPPRLPRPRPRPPWTPRP,-0.0555
23,RRIRGRPPRLPRPRPRPTTYPRP,0.214
24,RRIRMRPPRLPRPRPRPHAGPRP,0.222
25,RRIRYRPPRLPRPRPRPTDHPRP,-0.254

row,Sequence,shrunken log2 fold change
1,RRIRARPPRLPRPRPRPGKIPRP,0.0623
2,RRIRPRPPRLPRPRPRPEQRPRP,0.124
3,RRIRNRPPRLPRPRPRPACHPRP,0.152
4,RRIRNRPPRLPRPRPRPMKTPRP,-0.0393
5,RRIRWRPPRLPRPRPRPMGKPRP,0.561
6,RRIRVRPPRLPRPRPRPMWHPRP,0.0166
7,RRIRTRPPRLPRPRPRPMGPPRP,-0.114
8,RRIRLRPPRLPRPRPRPMNHPRP,-0.409
9,RRIRTRPPRLPRPRPRPCPCPRP,-0.366
10,RRIRFRPPRLPRPRPRPQENPRP,0.133
11,RRIRWRPPRLPRPRPRPDPYPRP,-0.198
12,RRIRARPPRLPRPRPRPEINPRP,0.96
13,RRIRMRPPRLPRPRPRPHQFPRP,-0.0236
14,RRIRIRPPRLPRPRPRPDRWPRP,0.0549
15,RRIRNRPPRLPRPRPRPQLNPRP,-0.539
16,RRIRVRPPRLPRPRPRPQSEPRP,-0.107
17,RRIRMRPPRLPRPRPRPVHFPRP,0.602
18,RRIRVRPPRLPRPRPRPQITPRP,-0.229
19,RRIRKRPPRLPRPRPRPEECPRP,0.00489
20,RRIRPRPPRLPRPRPRPTLDPRP,0.172
21,RRIRARPPRLPRPRPRPWTAPRP,0.871
22,RRIRRRPPRLPRPRPRPGRVPRP,0.593
23,RRIRYRPPRLPRPRPRPQISPRP,-0.0191
24,RRIRKRPPRLPRPRPRPWKQPRP,0.0185
25,RRIRRRPPRLPRPRPRPKNYPRP,-0.177
